test: yeast display, Sf9 membrane polyspecificity reagent, FACS + sequencing; frameworks hold sequencing errors
Procedure, shortened: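 Polyreactivity labels are assigned by the sorting gate from which each nanobody was recovered. The gates were low and high (top ~1%), set on anti-HA fluorescence for expression and streptavidin fluorescence for reagent binding. Before sorting, galactose-induced (36–48 hours) yeast display cells were stained for 1 hour at 4 °C with 10% biotinylated, detergent-solubilized Sf9 membrane reagent.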

Row | Sequence | polyreactivity (PSR sort gate)
1 | QVQLVESGGGLVQAGGSLRLSCAASGFTFSYNAMGWYRQAPGKERELVAAISSGGRTYYADSVKGRFTISRDNAKNTVYLQINSLKPEDTAVYYCNAEPDQYTLRSITNDEDYWGQGTQVTVSS | low polyreactivity
2 | QVQLVESGGGLVQAGGSLRLSCAASGFTFSYYAMGGYRQAPGKERELVAGIDYSGGSTYYADSVKGRFTISRDNAKNTVYLQMNSQKPEDTAVFYCNAVYARKYYYSHGYDYWGQGTQVTVSS | high polyreactivity
3 | QVQLVESGGGLVQAGGSLRLSCAASGFTFSYYAMGWSRQAPGKERELVAAITTSGGRTYYADSVKGRFTISRDNAKNTFYLQMNSLKPEDTAVYYCAATYPRYYSGEFDYWGQGTQVTVSS | high polyreactivity
4 | QVQLVESGGGLVQAGGSLRLSCAASGFTFSYYAMGWYRQAPGKERELVAAITSSAGSTYYADSVKGRFTISRDNAKNTVYLQMNSLKPEDTAVYYCNAVYSKLNGGYDYWGQGTQVTVSS | low polyreactivity
5 | QVQLVESGGGLVQAGGSLRLSCAASGFTFSYYAMGWYRQAPGKERELVAGITTGGGTNYADSVKGRFTISRDNAKNTVYLQMNSLKPEDTAVFYCNADYWYKYDYWGQGTQVTVSS | low polyreactivity
6 | QVQLVESGGGLVQAGGSLRLSCAASGFTFSYYAMGWYRQSPGKERELVASISRSGNTYYADSVKGRFTISRDNAKNTVYLQMKSLKPEDTAVYYCAAKRKSYYSYNFDYWGQGTQVTVSS | high polyreactivity
7 | QVQLVESGGGLVQAGGSLRLSCAASGFTFSYYARGWYRQAPGKERELVAAISINGGRTYYADSVKGRFTISRDNAKNTVYLQMNSLKPEDTAVYYCNAVSYAYTVRMYYWGQVTQVTVSS | high polyreactivity
8 | QVQLVESGGGLVQAGGSLRLSCAASGFTFSYYSMGRYRQAPGKERELVARISFSGTRTYYADSVKGRFTISRDNAKNTVYLQMNSLKPEDTAVYYCARRYRDYGRYGYWGQGTQVTVSS | high polyreactivity
9 | QVQLVESGGGLVQAGGSLRLSCAASGFTFTANGMGWYIQAPGKERELLAAINWSGSRTYYADSVKGRFTISRDNAKNTVYLQMNSLKPEDTAVYYCNTATSKSSYRHYDYWGQGTQVTVSS | high polyreactivity
10 | QVQLVESGGGLVQAGGSLRLSCAASGFTFTAYAMGWYRQAPGKERELVAAISNRGGRTYYADSVKGRFTFSRDNAKNTVYLQMNSLKPEDTAVYYCAAGYSYAQYSYPFLSFAFGYWGQGTQVTVSS | high polyreactivity
11 | QVQLVESGGGLVQAGGSLRLSCAASGFTFTAYARGWYRQAPGKERELVAAINWSGSRTSYADSVKGRFTISRDNAKNTVYLQMNSLKPEDTAVYYCNPATSKSSYRHYDYWGQGTQVTVSS | high polyreactivity
12 | QVQLVESGGGLVQAGGSLRLSCAASGFTFTDNAMGRYRQAPGKERELVAAISEGSGITYYADSVKGRFTISRDNAKNTVYLQMNSLKPEDTAVYYCAADWLSKYDYWGQGTQVTVSS | low polyreactivity
13 | QVQLVESGGGLVQAGGSLRLSCAASGFTFTDYAMGWYRQAPGKERELVAAIYGIGGSTYYADSVKGRFTISRDNAKITVYLKMKSLKPEDTAVYYWNAYRSFTGYDYDYWGQGTQVTVSS | high polyreactivity
14 | QVQLVESGGGLVQAGGSLRLSCAASGFTFTHYAMGWYREAPGKERELVAAISTSVGSKYYADSVKGRFTISRDNAKNTVYVQMNSLKPEDTAVYYFAARRDGWVQWGNYYWGQVTQVTVSS | low polyreactivity
15 | QVQLVESGGGLVQAGGSLRLSCAASGFTFTINAMGWYRQAPGKERELVAAINWRGGSTYYADSVKGRFTISRDNAKNTVYLQMNSLKPEDTAVYYCNAVASIYSYAYPPYWGREHLNYWGQGTQVTVSS | low polyreactivity
16 | QVQLVESGGGLVQAGGSLRLSCAASGFTFTIYAMGWYRPAPGKEMELVAAITGRGGSTYYADSVKGRFTISRDNAKNTVYLRMNSLKPEDTAVYYCADSQRSGHPSYDYWGQGTQVTVSS | high polyreactivity
17 | QVQLVESGGGLVQAGGSLRLSCAASGFTFTKYAMGWYRQAPGKERELVAAITSSGGGTYYADSVKGRFTISRDYAKNTVYLQMNRLKPVDTAVYYCARDSRTGYYYWGQGTQVTVSS | high polyreactivity
